Data on seven compounds can be found in article PMC8763920, “Unprotected peptide macrocyclization and stapling via a fluorine-thiol displacement reaction” (Nature Communications, 2022).

*1 amine or outer side, *2 acyl side, *3 side chain or, on linkers, in order; H or OH if unused. Where a SMILES comes first, the peptide text is derived from it. Bridges are numbered along the chain shown (N, C = ends). [ ]: non-standard residue; d: D form. Benzene(1,3-(CH2SCH2CO)2) = O=C(CSCc1cccc(CSCC(=O)[*:2])c1)[*:1]; X3 = O=C(CSCCCCCCCCSCC(=O)[*:2])[*:1]; X2 = O=C(CSCCCCCCCSCC(=O)[*:2])[*:1]; dDap = NC[C@@H](N)C(=O)O; Dap = NC[C@H](N)C(=O)O

The data set is described as follows: circular dichroism. Particulars: water; pH ns; 25 °C; 70 uM. (CD spectra are sensitive to the conformation of chiral molecules.)
`CC[C@H](C)[C@@H]1NC(=O)[C@H](NC(=O)[C@H](CCC(=O)O)NC(=O)[C@@H]2CCCN2C(=O)[C@H](CC(N)=O)NC(=O)[C@H](CCC(=O)O)NC(C)=O)CNC(=O)CSCCCCCCCSCC(=O)NC[C@H](C(=O)N[C@@H](Cc2c[nH]cn2)C(=O)N[C@H](C(=O)N[C@@H](CCC(N)=O)C(=O)N[C@@H](CCCNC(=N)N)C(=O)N[C@H](C(=O)N[C@@H](CCSC)C(N)=O)C(C)C)C(C)C)NC(=O)[C@H](CC(=O)O)NC(=O)[C@H](CC(C)C)NC1=O` (Ac-ENPE[dDap]ILD[dDap]HVQRVM-NH2; linker 5-9 via X2) registered a helicity of 31%. With `CC[C@H](C)[C@@H]1NC(=O)[C@@H](NC(=O)[C@@H](N)CCC(=O)O)CNC(=O)CSCc2cccc(c2)CSCC(=O)NC[C@H](C(=O)N[C@@H](Cc2c[nH]cn2)C(=O)O)NC(=O)[C@H](CC(=O)O)NC(=O)[C@H](CC(C)C)NC1=O` (H-E[Dap]ILD[dDap]H-OH; linker 2-6 via Benzene(1,3-(CH2SCH2CO)2)) the figure was 39%. With `CC[C@H](C)[C@@H]1NC(=O)[C@H](NC(=O)[C@@H](N)CCC(=O)O)CNC(=O)CSCc2cccc(c2)CSCC(=O)NC[C@@H](C(=O)N[C@@H](Cc2c[nH]cn2)C(=O)O)NC(=O)[C@H](CC(=O)O)NC(=O)[C@H](CC(C)C)NC1=O` (H-E[dDap]ILD[Dap]H-OH; linker 2-6 via Benzene(1,3-(CH2SCH2CO)2)) the figure was 13%.

As to `CC[C@H](C)[C@@H]1NC(=O)[C@H](NC(=O)[C@H](CCC(=O)O)NC(=O)[C@@H]2CCCN2C(=O)[C@H](CC(N)=O)NC(=O)[C@H](CCC(=O)O)NC(C)=O)CNC(=O)CSCCCCCCCCSCC(=O)NC[C@@H](C(=O)N[C@@H](Cc2c[nH]cn2)C(=O)N[C@H](C(=O)N[C@@H](CCC(N)=O)C(=O)N[C@@H](CCCNC(=N)N)C(=O)N[C@H](C(=O)N[C@@H](CCSC)C(N)=O)C(C)C)C(C)C)NC(=O)[C@H](CC(=O)O)NC(=O)[C@H](CC(C)C)NC1=O` (Ac-ENPE[dDap]ILD[Dap]HVQRVM-NH2; linker 5-9 via X3), the helicity is 5%. With `CC[C@H](C)[C@@H]1NC(=O)[C@@H](NC(=O)[C@H](CCC(=O)O)NC(=O)[C@@H]2CCCN2C(=O)[C@H](CC(N)=O)NC(=O)[C@H](CCC(=O)O)NC(C)=O)CNC(=O)CSCc2cccc(c2)CSCC(=O)NC[C@H](C(=O)N[C@@H](Cc2c[nH]cn2)C(=O)N[C@H](C(=O)N[C@@H](CCC(N)=O)C(=O)N[C@@H](CCCNC(=N)N)C(=O)N[C@H](C(=O)N[C@@H](CCSC)C(N)=O)C(C)C)C(C)C)NC(=O)[C@H](CC(=O)O)NC(=O)[C@H](CC(C)C)NC1=O` the figure was 44%.

In turn, `CC[C@H](C)[C@@H]1NC(=O)[C@H](NC(=O)[C@H](CCC(=O)O)NC(=O)[C@@H]2CCCN2C(=O)[C@H](CC(N)=O)NC(=O)[C@H](CCC(=O)O)NC(C)=O)CNC(=O)CSCc2cccc(c2)CSCC(=O)NC[C@H](C(=O)N[C@@H](Cc2c[nH]cn2)C(=O)N[C@H](C(=O)N[C@@H](CCC(N)=O)C(=O)N[C@@H](CCCNC(=N)N)C(=O)N[C@H](C(=O)N[C@@H](CCSC)C(N)=O)C(C)C)C(C)C)NC(=O)[C@H](CC(=O)O)NC(=O)[C@H](CC(C)C)NC1=O` came in with a helicity of 13%. The same measure for `CC[C@H](C)[C@@H]1NC(=O)[C@H](NC(=O)[C@H](CCC(=O)O)NC(=O)[C@@H]2CCCN2C(=O)[C@H](CC(N)=O)NC(=O)[C@H](CCC(=O)O)NC(C)=O)CNC(=O)CSCc2cccc(c2)CSCC(=O)NC[C@@H](C(=O)N[C@@H](Cc2c[nH]cn2)C(=O)N[C@H](C(=O)N[C@@H](CCC(N)=O)C(=O)N[C@@H](CCCNC(=N)N)C(=O)N[C@H](C(=O)N[C@@H](CCSC)C(N)=O)C(C)C)C(C)C)NC(=O)[C@H](CC(=O)O)NC(=O)[C@H](CC(C)C)NC1=O`: 8%.
